For test [1], the target named is Schizosaccharomyces pombe ribosome (S. pombe). Description: co-sedimentation; ribosome 1 μM and NatA 1.2 μM layered on Buffer G with 30% sucrose, ultracentrifuged; pellet and supernatant on SDS-PAGE.
The target is the same in test [2]. The test can be described thus: co-sedimentation; NatA constant at 0.5 μM, ribosome 0.1–11 μM, 30% sucrose cushion; anti-His western blot of Naa15, proportion in the pellet quantified; fit assumes 1:1. A general note: In western blotting, separated proteins are transferred to a membrane and probed.

Values joined by “and” are separate entries in the source; they are usually repeats but may differ in a detail not shown here. Identical values can stand only once. Where only a bound is given, the exact number is not on record here.

As for “NatA (wild type; Naa15-Naa10 complex of Schizosaccharomyces pombe)”, the stoichiometry N in test [1] was 1.13 and 1.28. Also, in test [2], the Kd came to 1100 nM.
With “NatA K9E (Naa15 K27E, K28E, K31E, K605E, K606E, K609E, K610E, K612E, K613E with Naa10) (complex)”, the percent pulldown (highest reached at the ribosome concentrations used) in test [2] is less than 30%.

By stoichiometry N is commonly meant a count of units in the complex or per binding partner. As a reminder, the Kd is a measure of binding affinity in units of concentration. A low value points to tighter binding.
